Reference: the supplement of paper PMC10065799, “High-throughput profiling of sequence recognition by tyrosine kinases and SH2 domains using bacterial peptide display” (eLife, 2023)

Tests used:
[1] = target: Fyn (UniProt P06241); assay: phosphorylation enrichment, bacterial display (enrichment ratio); higher = better substrate or ligand; peptides without Tyr show the background
[2] = system: c-Abl (mouse); assay: as above
[3] = target: MERTK (UniProt Q12866); assay: as above
[4] = target: Hck (UniProt P08631); assay: as above
[5] = target: EPHB2 (UniProt P29323); assay: as above
[6] = system: c-Src; assay: as above
[7] = system: Fer (mouse); assay: as above
[8] = target: Jak2 (UniProt O60674); assay: as above
[9] = target: FGFR3 (UniProt P22607); assay: as above
[10] = target: EPHB1 (UniProt P54762); assay: as above
[11] = target: FGFR1 (UniProt P11362); assay: as above
[12] = target: Fes (UniProt P07332); assay: as above
[13] = system: AncSZ; assay: as above
[14] = target: Grb2 SH2 (UniProt P62993); assay: SH2 binding enrichment of the phosphorylated peptide, bacterial display (enrichment ratio); higher = better substrate or ligand; peptides without Tyr show the background
[15] = target: SHP2-C SH2; assay: as above
[16] = target: c-Src SH2; assay: as above
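For SH2 binding enrichment of the phosphorylated peptide, bacterial display in this document: peptide library displayed on the E. coli surface as eCPX fusions, selected cells deep-sequenced, score is each peptide's frequency after selection divided by its frequency in the input.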
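For phosphorylation enrichment, bacterial display in this document: 11-residue human phosphosite peptides and single-mutation variants displayed on the E. coli surface, counted by deep sequencing, each peptide's frequency after selection divided by its frequency in the unselected input library; frequency after pTyr selection over input frequency; kinase dosed for 20-30% of maximal phosphorylation in three min.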

Sequence of FGFR1 (P11362 whole entry, looked up): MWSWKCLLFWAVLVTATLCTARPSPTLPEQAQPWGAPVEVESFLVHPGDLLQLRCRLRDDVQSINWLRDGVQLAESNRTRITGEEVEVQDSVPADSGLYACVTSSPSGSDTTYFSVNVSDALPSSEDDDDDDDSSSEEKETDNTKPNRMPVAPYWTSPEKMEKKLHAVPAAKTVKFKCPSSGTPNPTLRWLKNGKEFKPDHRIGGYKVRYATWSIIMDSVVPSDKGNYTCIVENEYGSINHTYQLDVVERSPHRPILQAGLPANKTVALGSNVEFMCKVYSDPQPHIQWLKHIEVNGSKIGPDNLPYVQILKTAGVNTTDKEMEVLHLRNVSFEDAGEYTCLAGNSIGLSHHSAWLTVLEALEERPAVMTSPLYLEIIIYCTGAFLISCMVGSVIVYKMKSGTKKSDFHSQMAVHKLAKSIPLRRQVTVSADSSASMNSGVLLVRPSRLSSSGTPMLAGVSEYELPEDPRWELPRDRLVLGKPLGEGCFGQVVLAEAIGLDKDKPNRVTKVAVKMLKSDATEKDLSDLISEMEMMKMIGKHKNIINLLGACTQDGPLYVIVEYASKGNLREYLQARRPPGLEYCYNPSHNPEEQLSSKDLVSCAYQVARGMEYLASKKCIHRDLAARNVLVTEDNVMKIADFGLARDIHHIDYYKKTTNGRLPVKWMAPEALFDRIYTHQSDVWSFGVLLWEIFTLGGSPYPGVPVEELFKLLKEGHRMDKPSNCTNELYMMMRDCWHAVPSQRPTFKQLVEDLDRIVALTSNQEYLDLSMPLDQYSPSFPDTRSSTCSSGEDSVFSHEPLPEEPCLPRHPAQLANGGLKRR
Sequence of EPHB2 (P29323 whole entry, looked up): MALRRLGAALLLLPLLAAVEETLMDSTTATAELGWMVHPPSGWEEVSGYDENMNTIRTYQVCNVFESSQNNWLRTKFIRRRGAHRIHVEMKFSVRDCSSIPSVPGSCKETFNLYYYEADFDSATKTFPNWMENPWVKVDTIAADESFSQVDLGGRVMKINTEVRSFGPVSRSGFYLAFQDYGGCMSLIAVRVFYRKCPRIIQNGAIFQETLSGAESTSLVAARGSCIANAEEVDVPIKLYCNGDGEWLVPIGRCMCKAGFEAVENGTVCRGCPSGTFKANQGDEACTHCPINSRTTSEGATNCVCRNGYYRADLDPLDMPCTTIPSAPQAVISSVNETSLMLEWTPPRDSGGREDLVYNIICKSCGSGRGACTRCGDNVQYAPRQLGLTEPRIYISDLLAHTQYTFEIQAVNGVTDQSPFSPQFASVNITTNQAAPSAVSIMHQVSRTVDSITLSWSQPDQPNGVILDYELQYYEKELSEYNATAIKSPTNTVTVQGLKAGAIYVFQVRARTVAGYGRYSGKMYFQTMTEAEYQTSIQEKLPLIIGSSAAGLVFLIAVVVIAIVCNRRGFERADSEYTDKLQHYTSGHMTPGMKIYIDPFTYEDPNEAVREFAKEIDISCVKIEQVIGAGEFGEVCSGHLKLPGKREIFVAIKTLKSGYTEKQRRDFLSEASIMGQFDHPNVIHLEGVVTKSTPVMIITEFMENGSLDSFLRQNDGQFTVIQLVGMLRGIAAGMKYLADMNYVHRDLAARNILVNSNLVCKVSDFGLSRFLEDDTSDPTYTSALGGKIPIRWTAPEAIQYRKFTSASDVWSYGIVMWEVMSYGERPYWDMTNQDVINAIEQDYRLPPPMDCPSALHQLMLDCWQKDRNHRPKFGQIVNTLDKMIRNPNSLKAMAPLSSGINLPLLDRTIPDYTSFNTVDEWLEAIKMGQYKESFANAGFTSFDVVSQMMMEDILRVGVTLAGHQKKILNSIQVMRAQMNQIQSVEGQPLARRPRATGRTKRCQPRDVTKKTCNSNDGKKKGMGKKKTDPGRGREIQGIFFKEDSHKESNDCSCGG
Sequence of MERTK (Q12866 whole entry, looked up): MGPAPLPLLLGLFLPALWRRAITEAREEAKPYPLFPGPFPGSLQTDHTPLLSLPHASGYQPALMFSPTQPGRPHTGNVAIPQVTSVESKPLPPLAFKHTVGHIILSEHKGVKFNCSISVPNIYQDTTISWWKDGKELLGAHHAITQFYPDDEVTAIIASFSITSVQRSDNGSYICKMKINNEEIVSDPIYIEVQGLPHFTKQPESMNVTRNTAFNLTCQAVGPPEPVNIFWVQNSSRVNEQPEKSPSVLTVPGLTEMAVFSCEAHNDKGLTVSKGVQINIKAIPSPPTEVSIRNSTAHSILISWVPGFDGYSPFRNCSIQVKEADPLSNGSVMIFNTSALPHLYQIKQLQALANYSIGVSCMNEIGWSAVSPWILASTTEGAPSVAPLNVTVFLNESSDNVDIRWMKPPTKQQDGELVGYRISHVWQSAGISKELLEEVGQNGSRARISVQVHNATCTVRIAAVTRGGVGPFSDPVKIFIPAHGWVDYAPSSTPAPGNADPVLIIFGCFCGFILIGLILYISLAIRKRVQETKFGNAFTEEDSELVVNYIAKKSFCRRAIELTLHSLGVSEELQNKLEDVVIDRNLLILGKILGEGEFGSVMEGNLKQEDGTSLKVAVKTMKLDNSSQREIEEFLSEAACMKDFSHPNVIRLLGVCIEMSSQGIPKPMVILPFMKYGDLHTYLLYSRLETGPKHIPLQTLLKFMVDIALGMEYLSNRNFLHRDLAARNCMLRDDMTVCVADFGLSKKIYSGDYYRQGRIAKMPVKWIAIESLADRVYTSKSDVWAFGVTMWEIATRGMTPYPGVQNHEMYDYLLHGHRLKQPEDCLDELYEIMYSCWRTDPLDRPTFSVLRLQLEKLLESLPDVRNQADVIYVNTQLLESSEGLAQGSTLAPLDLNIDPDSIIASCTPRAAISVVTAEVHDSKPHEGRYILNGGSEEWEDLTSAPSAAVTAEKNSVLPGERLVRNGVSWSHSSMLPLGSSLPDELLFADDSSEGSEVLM
Sequence of Hck (P08631 whole entry, looked up): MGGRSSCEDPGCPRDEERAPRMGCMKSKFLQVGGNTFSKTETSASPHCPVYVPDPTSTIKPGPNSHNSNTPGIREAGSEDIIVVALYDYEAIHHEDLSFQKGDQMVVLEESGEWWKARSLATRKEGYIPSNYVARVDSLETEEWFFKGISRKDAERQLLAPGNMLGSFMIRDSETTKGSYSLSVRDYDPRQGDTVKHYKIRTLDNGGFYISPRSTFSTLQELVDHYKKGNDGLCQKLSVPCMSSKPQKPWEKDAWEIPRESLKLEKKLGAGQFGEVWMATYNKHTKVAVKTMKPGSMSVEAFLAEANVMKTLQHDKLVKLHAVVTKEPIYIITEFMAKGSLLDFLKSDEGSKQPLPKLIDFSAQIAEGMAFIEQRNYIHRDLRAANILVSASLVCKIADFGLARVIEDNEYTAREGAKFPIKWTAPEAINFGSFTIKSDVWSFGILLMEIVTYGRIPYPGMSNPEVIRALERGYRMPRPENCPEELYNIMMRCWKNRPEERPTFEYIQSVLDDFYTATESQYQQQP
Sequence of Fyn (P06241 whole entry, looked up): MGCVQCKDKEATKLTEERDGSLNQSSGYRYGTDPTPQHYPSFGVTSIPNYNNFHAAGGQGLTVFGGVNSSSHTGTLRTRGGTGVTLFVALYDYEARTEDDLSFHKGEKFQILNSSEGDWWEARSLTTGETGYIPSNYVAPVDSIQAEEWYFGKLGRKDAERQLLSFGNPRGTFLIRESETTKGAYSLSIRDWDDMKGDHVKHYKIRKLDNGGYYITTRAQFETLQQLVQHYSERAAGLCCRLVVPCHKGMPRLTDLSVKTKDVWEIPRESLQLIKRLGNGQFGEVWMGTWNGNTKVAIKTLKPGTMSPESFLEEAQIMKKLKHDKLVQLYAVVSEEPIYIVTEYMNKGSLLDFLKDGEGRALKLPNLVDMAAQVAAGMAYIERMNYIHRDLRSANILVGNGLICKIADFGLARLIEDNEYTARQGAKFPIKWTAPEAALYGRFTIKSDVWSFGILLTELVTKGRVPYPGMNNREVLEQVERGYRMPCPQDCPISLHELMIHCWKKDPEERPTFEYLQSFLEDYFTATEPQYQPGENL
Sequence of Fes (P07332 whole entry, looked up): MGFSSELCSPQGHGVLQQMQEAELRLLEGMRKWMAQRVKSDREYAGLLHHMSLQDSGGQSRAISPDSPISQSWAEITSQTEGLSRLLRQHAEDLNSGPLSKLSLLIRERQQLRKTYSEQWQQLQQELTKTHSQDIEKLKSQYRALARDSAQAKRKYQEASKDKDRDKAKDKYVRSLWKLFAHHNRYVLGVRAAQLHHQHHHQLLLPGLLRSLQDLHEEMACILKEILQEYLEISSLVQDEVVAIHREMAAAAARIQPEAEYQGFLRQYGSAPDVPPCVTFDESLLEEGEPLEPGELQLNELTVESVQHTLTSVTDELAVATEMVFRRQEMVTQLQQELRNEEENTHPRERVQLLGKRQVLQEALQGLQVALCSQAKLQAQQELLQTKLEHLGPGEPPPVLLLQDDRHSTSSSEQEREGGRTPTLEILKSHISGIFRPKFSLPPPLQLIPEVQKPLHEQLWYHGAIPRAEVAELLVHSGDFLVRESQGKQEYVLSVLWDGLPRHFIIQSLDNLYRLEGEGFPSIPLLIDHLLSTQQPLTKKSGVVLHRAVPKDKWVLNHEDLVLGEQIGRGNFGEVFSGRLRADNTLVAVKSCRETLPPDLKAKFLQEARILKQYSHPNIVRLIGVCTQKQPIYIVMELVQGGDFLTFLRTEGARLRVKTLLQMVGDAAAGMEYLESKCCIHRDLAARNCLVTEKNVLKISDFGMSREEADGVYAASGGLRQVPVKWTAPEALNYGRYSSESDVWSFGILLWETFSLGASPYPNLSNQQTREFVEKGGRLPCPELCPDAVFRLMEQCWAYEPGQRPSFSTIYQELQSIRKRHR
Sequence of Grb2 SH2 (P62993 whole entry, looked up): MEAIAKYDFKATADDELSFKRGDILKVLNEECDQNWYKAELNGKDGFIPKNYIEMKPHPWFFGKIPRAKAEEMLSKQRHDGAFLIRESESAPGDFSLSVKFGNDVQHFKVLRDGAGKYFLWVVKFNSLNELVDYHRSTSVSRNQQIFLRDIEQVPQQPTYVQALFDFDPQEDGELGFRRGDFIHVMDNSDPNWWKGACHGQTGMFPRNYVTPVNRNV

Sequence	phosphorylation enrichment [1]	phosphorylation enrichment [2]	phosphorylation enrichment [3]	phosphorylation enrichment [4]	phosphorylation enrichment [5]	phosphorylation enrichment [6]	phosphorylation enrichment [7]	phosphorylation enrichment [8]	phosphorylation enrichment [9]	phosphorylation enrichment [10]	phosphorylation enrichment [11]	phosphorylation enrichment [12]	phosphorylation enrichment [13]	SH2 binding enrichment [14]	SH2 binding enrichment [15]	SH2 binding enrichment [16]
FSCLPYRRLAF [SLC52A2_Y305_G306R_YF]	0.559	0.63	0.531	0.432	0.589	0.902	0.411	0.806	0.568	0.428	0.478	0.826	0.992	0.677	0.852	0.47
FSGDFYRIQGR [DDR2_Y741_YF]	0.488	0.578	0.421	0.449	0.439	0.551	0.393	0.944	0.594	0.543	0.509	0.817	0.723	0.786	0.594	0.501
FSIAQYCCRMG [LRRK2_Y2023_G2019S_YF]	0.401	1.03	0.994	0.449	5.07	0.425	0.4	0.758	0.57	0.684	0.479	0.868	0.839	1.17	0.826	0.981
FSPGSYERETF [NF1_Y2192]	0.429	0.702	0.429	0.447	0.548	0.539	0.427	0.763	0.535	0.526	0.483	0.856	0.883	0.776	0.612	0.495
FSSLGYPLPEG [ZSWIM4_Y87_P89L_YF]	0.446	0.501	0.519	0.525	0.446	0.42	0.394	0.635	0.472	0.372	0.413	0.722	0.747	1.02	1.07	0.589
FTNRSYDLDYD [MYC_Y12_N11S]	0.565	0.645	0.512	0.632	0.841	0.576	0.488	0.804	0.745	0.542	0.561	1.13	1.24	0.717	0.418	2.51
GADAIYDHINE [UQCR10_Y44]	5.57	0.689	3.14	6.65	1.03	4.96	2.82	0.777	0.563	0.91	0.5	0.953	1.03	0.704	0.561	0.678
GADDSYYTVRS [ZAP70_Y492_A495V]	1.44	0.79	0.676	2.39	0.548	1.65	0.644	1.16	3.76	0.68	5.51	0.882	1.43	1.62	0.697	0.873
GASWRYRSGVS [NEU1_Y242_G243R]	0.388	0.48	0.402	0.46	0.608	0.445	0.474	0.587	0.511	0.388	0.494	0.693	0.583	0.82	0.524	0.391
GAVDTYCRHNF [HLA-DRB1_Y107_A102G_YF]	0.479	0.583	0.474	0.509	0.524	0.49	0.591	0.648	0.528	0.695	0.427	0.742	0.649	0.958	0.809	0.68
GCKKRYDKDKP [THAP1_Y14_N12K]	0.396	0.621	0.6	0.452	0.534	0.531	0.445	0.529	0.703	0.449	0.506	0.702	0.833	0.755	0.386	0.337
GDYYRSLAEVA [YWHAG_Y133_Y133S]	0.916	1.82	0.663	1.36	1.09	0.664	0.419	1.45	3.26	1.68	5.42	0.75	1.3	1.02	0.648	0.699
GEPLSYTRFSL [TFRC_Y20]	0.443	1	0.567	0.52	0.455	0.83	0.554	2.21	0.545	0.438	0.452	0.935	0.833	0.901	0.519	0.558
GESVSYLFSHV [PRPS1_Y311]	0.421	0.701	0.421	0.473	0.473	0.431	0.417	0.847	0.588	0.511	0.397	0.996	0.872	0.734	2.31	0.566
GFAIVYGTIIL [GPR179_Y460]	0.431	1.31	0.389	0.502	0.592	0.462	0.514	1.28	0.84	0.644	0.441	1.32	1.19	0.604	0.547	0.364
GFEVVYVTEPI [HSP90AB1_Y512_M513V]	0.424	0.641	0.386	0.549	0.465	0.591	0.444	0.983	0.605	0.344	0.443	0.959	1.1	0.802	0.454	0.495
GFKVRYATWSI [FGFR1_Y210_YF]	0.494	0.711	0.499	0.512	0.534	0.392	0.512	0.997	0.795	0.714	0.463	1.22	1.11	1.64	1.63	1.16
GGGGSYNVFGN [HNRNPA1_Y312_D314V]	0.441	0.652	0.457	0.424	0.523	0.488	0.419	0.723	0.515	0.404	0.467	0.742	0.65	0.833	0.747	0.52
GGQVFYNSEYG [FLT4_Y1333]	0.456	0.497	0.467	0.462	0.442	0.521	0.36	0.751	0.558	0.402	0.376	0.779	0.719	0.648	0.707	0.435
GGSTYYIDTNA [ACTL6A_Y69_P66S]	0.955	0.654	1.01	0.602	0.555	0.805	0.453	0.668	0.719	0.563	0.724	0.998	0.882	1.03	0.906	0.731
GGTTLYPGIAD [ACTC1_Y308_M307L]	0.458	0.484	0.381	0.442	0.531	0.363	0.431	0.553	0.548	0.446	0.537	0.765	0.587	0.762	0.648	0.453
GHLYAYNWISI [BEST1_Y227_D228N]	1.01	1.21	8.13	1.24	5.2	1.32	12	1.33	2.83	6.38	3.67	1.49	1.71	0.944	0.816	0.738
GIADDYDKKKP [EIF1_Y54_L59P]	0.418	0.648	0.378	0.381	0.502	0.436	0.389	0.909	0.636	0.425	0.501	0.998	1.01	0.76	0.614	0.895
GILDVYIFLGP [GAA_Y340]	0.505	0.866	0.701	0.676	0.792	0.7	0.381	1.21	1.02	0.787	0.864	1.44	1.27	0.768	0.79	0.44
GISDEYHVIRR [GCDH_Y398_H403R]	0.517	0.607	0.457	1.5	0.541	0.621	0.471	0.719	0.881	0.529	1.46	0.792	0.983	0.833	0.889	0.835
GKSDPYHATTG [GJA1_Y247_S251T]	0.345	0.476	0.319	0.413	0.254	0.361	0.38	0.41	0.409	0.287	0.374	0.506	0.396	0.771	0.778	0.416
GLGGGYGGASG [KRT8_Y54]	0.344	0.448	0.285	0.316	0.359	0.317	0.348	0.379	0.367	0.376	0.398	0.534	0.429	0.692	0.62	0.369
GNLLIYTDFGK [HGD_Y166_E168D]	4.75	1.53	3.44	3.49	1.27	4.63	0.726	1.09	0.702	3.06	0.682	1.27	1.08	0.891	0.822	0.765
GPCKAYELSQR [SETX_Y1297_R1294C]	0.533	0.664	0.451	0.467	0.63	0.546	0.496	0.66	0.547	0.416	0.547	0.969	0.735	0.775	0.958	0.634
